From patent publication US20260146071A1, “CCR2 INHIBITORS AND METHODS OF USE” (ORION BIOTECHNOLOGY USA Corp., priority 2022, published 2026) come the findings set out here.

Where two headings read alike, the source gives them in different places. Where no end group is shown, it is not given here. [ ]: non-standard residue; d: D form. Nle = CCCC[C@H](N)C(=O)O

In this experiment the target is T1, CCR2 (Homo sapiens, UniProt P41597).
T1 construct: endogenous in cells; host or cells: THP-1
T1 sequence (P41597 1-360 isoform P41597-2): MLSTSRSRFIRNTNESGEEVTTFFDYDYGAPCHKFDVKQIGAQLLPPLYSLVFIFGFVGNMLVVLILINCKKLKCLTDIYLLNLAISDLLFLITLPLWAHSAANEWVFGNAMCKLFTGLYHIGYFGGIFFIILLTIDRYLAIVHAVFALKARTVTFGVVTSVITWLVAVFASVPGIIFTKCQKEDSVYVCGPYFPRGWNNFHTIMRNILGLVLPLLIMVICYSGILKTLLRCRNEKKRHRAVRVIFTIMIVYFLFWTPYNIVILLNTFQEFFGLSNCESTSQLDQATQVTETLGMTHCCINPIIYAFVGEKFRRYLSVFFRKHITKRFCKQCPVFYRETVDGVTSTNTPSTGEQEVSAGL
Description: CCR2 inhibitory potency assay, calcium flux method, THP-1 cells stimulated with 100 nM CCL2. Conditions: for fold less potent than 1P2-CCL2: compiled data from four experiments. It counts as cell-based. On the procedure: CCR2 inhibitory potency assay was determined using the calcium flux method.
Ca^2+ flux measurements were performed using an FDSS micro-cell device ([…]). On the day of the experiment, THP-1 cells were seeded 20000 cells/well) to wells of black-walled clear-bottom 384-well plates.
THP-1 cells were loaded with a calcium-sensitive fluorescent dye (Screen Quest™ Fluo-8 No Wash Calcium Assay Kit, AAT Bioquest) according to the manufacturer's instructions, then a first addition of either test sample dilutions or vehicle alone were added. 5 minutes later, cells were stimulated with 100 nM CCL2.
(A change in cytosolic calcium serves as a functional read-out for many receptors and channels.)

Setting [1] is: FIG. 5, calcium flux, THP-1 cells, read-out: IC50 (compiled data from four experiments, mean pIC50) (converted).
The mark [2] stands for this setting: Table 3, CCR2 inhibition, read-out: mean IC50.
[3] abbreviates: Table 4, CCR2 inhibition, read-out: mean IC50.

Usually IC50 stands for the point on the concentration scale where inhibition reaches its midpoint. For `CC(C)(C)N1CCN[C@@H](C(=O)N2CCN(C(=O)Nc3ccc(Cl)c(F)c3)CC2)C1` [AZD2423, reference compound], the “fold less potent than 1P2-CCL2” value worked out at 3.53 fold. Moreover, the IC50 under setting [1] is 6 nM.
For `CC(=O)N[C@@H]1C[C@H](NC(C)(C)C)CC[C@@H]1N1CC[C@H](Nc2ncnc3cc(C(C)(C)C)nn23)C1=O` [BMS-813160, reference compound], the “fold less potent than 1P2-CCL2” value was 5.76 fold. Besides, under setting [1], the IC50 was 9.8 nM.
For the molecule `Cc1cnc(C(=O)c2ncnc3[nH]ccc23)c(NS(=O)(=O)c2ccc(Cl)c(C(F)(F)F)c2)c1` [CCX-140, reference compound], the “fold less potent than 1P2-CCL2” value is recorded as 14.12 fold. Under setting [1], the IC50 was 24 nM.
For “CCL2 variant, N-terminal (Nle)PDWNRAPVT (SEQ ID NO: 35), human CCL2 Met64Nle core [CCL2-M64Nle-NGS-MEO-1]”, the IC50 under setting [2] amounted to 167 nM.
Turning to “CCL2 variant, N-terminal AFSIMQAPVT (SEQ ID NO: 15), human CCL2 Met64Nle core [CCL2-M64Nle-1P8]”, the 50% inhibitory concentration (IC50) under setting [2] is 12 nM.
As to “CCL2 variant, N-terminal APQWAAAT, positions 1-2 absent (SEQ ID NO: 32), human CCL2 Met64Nle core [CCL2-M64Nle-2P1]”, the IC50 under setting [2] was determined as 89.3 nM.
As for “CCL2 variant, N-terminal FP(Nle)DGWAPVT (SEQ ID NO: 10), human CCL2 Met64Nle core [CCL2-M64Nle-2P6]”, under setting [2], the IC50 is 2.2 nM.
For the molecule “CCL2 variant, N-terminal FP(Nle)DGWGPGV (SEQ ID NO: 144), human CCL2 11-76 Met64Nle core (FP[Nle]DGWGPGV; also: followed by human CCL2 11-76 core with Met64Nle) [4P24-CCL2]”, the IC50 under setting [3] stood at 1.65 nM.
As for “CCL2 variant, N-terminal FP(Nle)DGWGSRV (SEQ ID NO: 102), human CCL2 11-76 Met64Nle core (FP[Nle]DGWGSRV; also: followed by human CCL2 11-76 core with Met64Nle) [4P2-CCL2]”, the IC50 under setting [3] came out at 2.72 nM.
With “CCL2 variant, N-terminal FP(Nle)DGWHPLV (SEQ ID NO: 132), human CCL2 11-76 Met64Nle core (FP[Nle]DGWHPLV; also: followed by human CCL2 11-76 core with Met64Nle) [4P18-CCL2]”, the IC50 under setting [3] was found to be 0.585 nM.
“CCL2 variant, N-terminal FP(Nle)DGWQGGV (SEQ ID NO: 122), human CCL2 11-76 Met64Nle core (FP[Nle]DGWQGGV; also: followed by human CCL2 11-76 core with Met64Nle) [4P13-CCL2]”: the IC50 under setting [3] is 0.534 nM.
For the molecule “CCL2 variant, N-terminal FP(Nle)DGWRGET (SEQ ID NO: 110), human CCL2 11-76 Met64Nle core (FP[Nle]DGWRGET; also: followed by human CCL2 11-76 core with Met64Nle) [4P6-CCL2]”, under setting [3], the IC50 amounted to 1.45 nM.
Same read-out and setting: to “CCL2 variant, N-terminal FP(Nle)DGWRGGV (SEQ ID NO: 116), human CCL2 11-76 Met64Nle core (FP[Nle]DGWRGGV; also: followed by human CCL2 11-76 core with Met64Nle) [4P9-CCL2]” belongs 1.65 nM; to “CCL2 variant, N-terminal FP(Nle)DGWRGLT (SEQ ID NO: 106), human CCL2 11-76 Met64Nle core (FP[Nle]DGWRGLT; also: followed by human CCL2 11-76 core with Met64Nle) [4P4-CCL2]”, 2.38 nM; to “CCL2 variant, N-terminal FP(Nle)DGWRGLV (SEQ ID NO: 136), human CCL2 11-76 Met64Nle core (FP[Nle]DGWRGLV; also: followed by human CCL2 11-76 core with Met64Nle) [4P20-CCL2]”, 0.93 nM.
“CCL2 variant, N-terminal FP(Nle)DGWRGQV (SEQ ID NO: 128), human CCL2 11-76 Met64Nle core (FP[Nle]DGWRGQV; also: fused to human CCL2 11-76 core with Met64Nle) [4P16-CCL2]”: the half-maximal inhibitory concentration (IC50) under setting [3] turned out to be 0.82 nM.
Turning to “CCL2 variant, N-terminal FP(Nle)DGWRPLV (SEQ ID NO: 140), human CCL2 11-76 Met64Nle core (FP[Nle]DGWRPLV; also: fused to human CCL2 11-76 core with Met64Nle) [4P22-CCL2]”, the IC50 under setting [3] amounted to 0.759 nM.
In the case of “CCL2 variant, N-terminal FP(Nle)DGWRPRQ (SEQ ID NO: 108), human CCL2 11-76 Met64Nle core (FP[Nle]DGWRPRQ; also: fused to human CCL2 11-76 core with Met64Nle) [4P5-CCL2]”, the IC50 under setting [3] came to 65.8 nM.
With “CCL2 variant, N-terminal FP(Nle)DGWRPRT (SEQ ID NO: 142), human CCL2 11-76 Met64Nle core (FP[Nle]DGWRPRT; also: fused to human CCL2 11-76 core with Met64Nle) [4P23-CCL2]”, the IC50 under setting [3] stood at 1.02 nM.
In the case of “CCL2 variant, N-terminal FP(Nle)DGWVSRT (SEQ ID NO: 124), human CCL2 11-76 Met64Nle core (FP[Nle]DGWVSRT; also: fused to human CCL2 11-76 core with Met64Nle) [4P14-CCL2]”, under setting [3], the IC50 is 0.965 nM.
In the case of “CCL2 variant, N-terminal FTNPTWAPLQ (SEQ ID NO: 83), human CCL2 11-76 Met64Nle core [3P8-CCL2]”, the IC50 under setting [3] came out at 0.892 nM.
On the same count and under the same terms, to “CCL2 variant, N-terminal FTNPTWATHV (SEQ ID NO: 82), human CCL2 11-76 Met64Nle core [3P7-CCL2]” belongs 1.47 nM; to “CCL2 variant, N-terminal FTNPTWDAFT (SEQ ID NO: 76), human CCL2 11-76 Met64Nle core [3P1-CCL2]”, 0.655 nM.
On the same count and under the same terms, to “CCL2 variant, N-terminal FTNPTWDAGV (SEQ ID NO: 97), human CCL2 11-76 Met64Nle core [3P22-CCL2]” belongs 1 nM.
Still for that read-out and setting: as for “CCL2 variant, N-terminal FTNPTWDAQV (SEQ ID NO: 77), human CCL2 11-76 Met64Nle core [3P2-CCL2]”, the figure is 0.883 nM; as for “CCL2 variant, N-terminal FTNPTWDAVT (SEQ ID NO: 89), human CCL2 11-76 Met64Nle core [3P14-CCL2]”, 0.594 nM.
As to “CCL2 variant, N-terminal FTNPTWDHFV (SEQ ID NO: 88), human CCL2 11-76 Met64Nle core [3P13-CCL2]”, the concentration for half-maximal inhibition (IC50) under setting [3] stood at 0.437 nM.
On the same count and under the same terms, as for “CCL2 variant, N-terminal FTNPTWDPFT (SEQ ID NO: 95), human CCL2 11-76 Met64Nle core [3P20-CCL2]”, the figure is 0.718 nM.
In the case of “CCL2 variant, N-terminal FTNPTWDQFT (SEQ ID NO: 86), human CCL2 11-76 Met64Nle core [3P11-CCL2]”, the IC50 under setting [3] worked out at 0.703 nM.
Take “CCL2 variant, N-terminal FTNPTWDRFT (SEQ ID NO: 87), human CCL2 11-76 Met64Nle core (not fully specified (C-terminus); also: followed C-terminally by human CCL2 11-76 core with Met64Nle) [3P12-CCL2]”: the 50% inhibitory concentration (IC50) under setting [3] came to 0.625 nM.
Turning to “CCL2 variant, N-terminal FTNPTWDSFS (SEQ ID NO: 84), human CCL2 11-76 Met64Nle core (not fully specified (C-terminus); also: followed C-terminally by human CCL2 11-76 core with Met64Nle) [3P9-CCL2]”, the IC50 under setting [3] came to 0.585 nM.
For the molecule “CCL2 variant, N-terminal FTNPTWDSVT (SEQ ID NO: 98), human CCL2 11-76 Met64Nle core (not fully specified (C-terminus); also: followed C-terminally by human CCL2 11-76 core with Met64Nle) [3P23-CCL2]”, the IC50 under setting [3] was 0.678 nM.
Turning to “CCL2 variant, N-terminal FTNPTWDTGT (SEQ ID NO: 96), human CCL2 11-76 Met64Nle core (not fully specified (C-terminus); also: followed C-terminally by human CCL2 11-76 core with Met64Nle) [3P21-CCL2]”, under setting [3], the IC50 was 1.28 nM.
On to “CCL2 variant, N-terminal FTNPTWDTQV (SEQ ID NO: 79), human CCL2 11-76 Met64Nle core (not fully specified (C-terminus); also: followed C-terminally by human CCL2 11-76 core with Met64Nle) [3P4-CCL2]”, for which the 50% inhibitory concentration (IC50) under setting [3] amounted to 0.646 nM.
For the molecule “CCL2 variant, N-terminal FTNPTWKPST (SEQ ID NO: 90), human CCL2 11-76 Met64Nle core (not fully specified (C-terminus); also: followed C-terminally by human CCL2 11-76 core with Met64Nle) [3P15-CCL2]”, under setting [3], the half-inhibitory concentration (IC50) came to 1.53 nM.
